Results taken from patent US20170165321A1, “METHOD FOR REDUCING AND/OR DELAYING PATHOLOGICAL EFFECTS OF HUMAN IMMUNODEFICIENCY VIRUS I (HIV) OR FOR REDUCING THE RISK OF DEVELOPING ACQUIRED IMMUNODEFICIENCY SYNDROME (AIDS)” (Bionor Immuno AS, priority 2014, published 2017).
Where no end group is shown, it is not given here.

Key:
[1] = test system: HIV-1 expression in latently infected cell lines and primary T cells; conditions: cited from earlier work
[2] = test system: HIV-specific T-cells; conditions: IMiD present during in vitro T-cell stimulation; Keersmaecker et al.; cited from earlier work
[3] = test system: mice; assay: Single-dose intravenous toxicity study in mice; type: in vivo, mouse
Description: (§1) Toxicity studies were performed in mice and rats on the peptide composition of the vaccine in Example 2. The mouse was selected for the study to provide comparative data from a second commonly used rodent species. The test substance was a mixture of four peptides supplied as one vial containing lyophilised material for reconstitution with physiological saline, and dose levels were expressed in terms of total peptide load. The individual peptides was present in ratio 1:1:1:1 w/w giving dose levels of each peptide of 0.0075 mg/kg body weight, 0.075 mg/kg body weight and 0.75 mg/kg body weight, which are up to 500 fold the intended human dose. The test animals were divided into four groups of ten animals each (five males and five females); a saline control group and groups for low, intermediate and high doses. The test composition was administered once, by intravenous infusion into a tail vein at a dose rate of 3 ml/minute. The animals were killed at day 15 and 16 by intraperitoneal injection of sodium pentobarbitone.

[4] = Osmolality of reconstituted Vacc-4x drug product; type: physicochemical
Description: The range of 10-100 mOsm/kg was defined based on the result obtained for the technical sample. Potential variability due to the four peptides is taken into account. For the drug product, approximately 1 mg of each of the four Vacc-4x peptides was used. The lyophilisate is reconstituted with 0.30 mL of WFI. Taking the acetic acid contents of the peptides listed in table 1 into account, the acetic acid content of Vacc-4x is approximately 0.40 mg in 0.30 mL of solution. The theoretical osmolality is approximately 23 mOsmol/L by calculation, which correlates well with the values determined in the Vacc-4x batches (20-23 mOsmol/kg).

[5] = test system: HIV positive subjects; assay: Phase II dose-finding study CTN B-HIV 2/2001; type: in vivo, human
Description: The Phase II dose-finding study (CTN B-HIV 2/2001) enrolled 40 HIV positive subjects, of which 38 completed the trial. Subjects were maintained on ART and treated with 10 immunizations at a dose of 0.4 mg (20 subjects) or 1.2 mg (20 subjects) per Vacc 4x injection, over a period of 26 weeks. Immunizations with Vacc 4x were performed following injection of rhu-GM-CSF (Leucomax [molgramostim]) as a local adjuvant. ART was interrupted from Week 26 to Week 30 to allow exposure to the subject's own virus (autologous immunization). ART was resumed from Week 30 to Week 38 to allow maturation of immune responses to the Vacc 4x peptides and to the subject's own virus. ART was discontinued from Week 38 to Week 52 when the study was formally concluded. […] One subject experienced a transient vasovagal reaction in conjunction with immunization and the DTH test at Week 26 and Week 38. A second subject experienced a vasovagal reaction in conjunction with the DTH test at Week 52. For the laboratory parameters, vital signs, and performance status, no changes attributable to immunization were observed.
The dose-dependent differences in DTH reactions were maintained throughout the study. […] ART was interrupted at Week 38 with planned restart when CD4 counts fell to less than 200/μL or when AIDS- or HIV related events were observed (i.e. clinical practice).
However, 14 weeks after the last interruption of ART (Week 52), the mean CD4 counts were still above 200×10^6 cells/L. No difference between the LD and the HD groups was observed. The majority of subjects remained off ART following completion of the study (Week 52); permission was given to follow the subjects until they resumed ART. The duration of treatment interruption was linked to immune responsiveness to the peptides. […] The median treatment interruption achieved for all the subjects that participated in the Vacc-4x Phase II clinical study was 31 months.

[6] = test system: rats; assay: Single-dose intravenous toxicity study in rats; type: in vivo, rat
Description: as §1

[7] = test system: HIV positive subjects; assay: Open-label re-boost follow-up study CTN BI Vacc-4x/2009/1; type: in vivo, human
From the text: CTN BI Vacc-4x/2009/1 was an open-label follow-up of study CTN B-HIV-2/2001 to determine whether a re-boost with Vacc-4x could reactivate or increase the immune response obtained during the immunization performed in the CTN B-HIV-2/2001 study. The secondary objectives were to evaluate: the in vivo immunogenicity of Vacc-4x by evaluation of DTH and to compare the DTH response to DTH in the initial study; the effect of Vacc-4x on CD4 counts, CD8 counts and HIV viral RNA; and the safety and tolerability of Vacc-4x. All 26 subjects included in the study received two booster administrations of Vacc-4x.

[8] = test system: rabbit; assay: Rabbit study of intradermal Vacc-4x with concomitant GM-CSF; type: in vivo
Description: In a rabbit study the effect of Vacc-4x was evaluated in the presence of concomitant GM-CSF, the adjuvant used in the clinical program.

[9] = test system: HIV-1 DNA (HIV-1 gag gene); assay: Proviral DNA by real-time PCR in re-boosting study CT-BI Vacc-4x 2012/1; type: in vivo, human; conditions: PP
Description: The study CT-BI Vacc-4x 2012/1 (EudraCT Number: 2012-002281-12) is an open label, multicenter, follow-up, re-boosting study of subjects who previously completed the immunization regimen with Vacc-4x active and stopped ART (at Week 28) in the CT-BI Vacc-4x 2007/1 Study (EudraCT Number 2007-006302-13). No restart of ART is required. The subjects will be re-boosted with two immunizations (Visit 2 and Visit 3) of Vacc-4x, 1.2 mg peptides (12 mg/mL), with a 2 week interval between immunizations.
HIV-1 DNA levels will be determined by real-time PCR (Taqman) assay targeting HIV-1 gag gene. Briefly, DNA for each subject at visit 2, 4, 6, 9 and 10 will be extracted from total PBMCs (1-4 million cells), eluted in appropriate storage buffer, quantified and stored at −20° C. until used. Equal amounts of DNA (≈300 ng) will be used to quantify gag and albumin genes in order to determine the number of copies of HIV-DNA per million of cells.
There was a decrease in proviral DNA levels of approximately 50% after immunization while on ART, based on geometric means.

[10] = test system: patients infected with HIV-1; assay: Phase II randomized placebo-controlled study CT-BI Vacc-4x 2007/1; type: in vivo, human
Description: The Phase II Study CT-BI Vacc-4x 2007/1 (EudraCT Number 2007-006302-13) was performed in US and Europe (UK, Germany, Spain and Italy). The study was a randomized, double-blind, multicenter, immunogenicity study of Vacc-4x versus placebo in patients infected with HIV-1 who have maintained an adequate response to ART. The primary objective was to evaluate the effect of Vacc-4x immunizations versus placebo on CD4 counts, T-cell function (ELISPOT, T-cell proliferative responses and intracellular cytokine staining) and the response to interruption of ART. The necessity to resume ART between the interruption of ART at Week 28 and the end of the study at Week 52, due to decreased CD4 count or increased viral loads, was monitored as one of the primary efficacy endpoints.

[11] = test system: HIV-positive subjects
[12] = single intravenous dose, total peptide load
[13] = single intravenous infusion, up to 0.75 mg/kg of each peptide
[14] = 26 subjects, two booster administrations
[15] = 0.4 mg/injection, 12 immunizations

C/C=C1\NC(=O)[C@H]2CSSCC/C=C/[C@H](CC(=O)N[C@H](C(C)C)C(=O)N2)OC(=O)[C@H](C(C)C)NC1=O [romidepsin, (1S,4S,7Z,10S,16E,21R)-7-ethylidene-4,21-bis(1-methylethyl)-2-oxa-12,13-dithia-5,8,20,23-tetraazabicyclo[8.7.6] tricos-16-ene-3,6,9,19,22-pentone]
activation of HIV-1 expression [1]: potently activates HIV-1 expression

Nc1cccc2c1CN(C1CCC(=O)NC1=O)C2=O (centres unmarked) [Lenalidomide]
function of the T-cells [2]: a number of improvements in the function of the T-cells

Nc1cccc2c1C(=O)N(C1CCC(=O)NC1=O)C2=O (centres unmarked) [pomalidomide]
function of the T-cells [2]: a number of improvements in the function of the T-cells

B1: Vacc-4x: four synthetic peptides (Vacc-10, Vacc-11, Vacc-12, Vacc-13 acetate) corresponding to conserved domains on HIV-1 p24; SEQ ID NOs 3, 6, 11, 18 (peptide)
chain 1: APTRAKRRVVQREKRAV
chain 2: DRPEGIEEEGGERDR
chain 3: QLLLNGSLAEEEIVI
chain 4: GGAKRRVVGGAKRRVVGGQREKR
modifications: also: acetate salts
safety margin over the planned human dose level ([3]; from no effect level): 500 fold | no effect level [3, 12]: > 3 mg/kg | adverse reactions [3, 13]: no adverse reactions | theoretical osmolality ([4]; by calculation, approx. 0.40 mg acetic acid in 0.30 mL): approximately 23 mOsmol/L | osmolality determined in the Vacc-4x batches ([4]; lyophilisate, approx. 1 mg of each peptide, reconstituted with 0.30 mL WFI): 20-23 mOsmol/kg | subjects with treatment-related AEs ([5]; 0.4 mg group (20 subjects)): 8 subjects | DTH positive reactions ([5]; 0.4 mg or 1.2 mg per injection): observed for all subjects | SAEs during the period of immunization ([5]; 0.4 mg or 1.2 mg per injection): No SAEs were reported | subjects with treatment-related AEs ([5]; 1.2 mg group (20 subjects)): 12 subjects | DTH positive responses (induration and erythema), high dose versus low dose ([5]; 1.2 mg versus 0.4 mg): statistically significantly higher in the high dose | median treatment interruption ([5]; all subjects of the Phase II study, off ART): 31 months | subjects with treatment-related AEs ([5]; both dose groups, 40 subjects, 10 immunizations over 26 weeks): 20 subjects | decline in CD4 cells versus similar subjects who stopped treatment without Vacc-4x ([5]; comparison with subjects in the Netherlands): significantly slower decline in CD4 cells | CD4 counts during the immunization period ([5]; on ART): stable or increased | safety margin over the planned human dose level ([6]; from no effect level): 500 fold | no effect level [6, 12]: > 3 mg/kg | adverse reactions [6, 13]: no adverse reactions | adverse events possibly/probably related to the study treatment ([7]; 26 subjects): 60 | patients reporting swelling related to the immunization ([7]; 26 subjects): Five | related adverse events that were mild ([7]; 26 subjects): 98% | serious adverse events ([7]; 26 subjects): No patient reported serious adverse events | subjects reporting AEs [7, 14]: 23 subjects | total AEs reported [7, 14]: 74 AEs | duration of T cell responses induced by Vacc-4x peptides ([7]; before re-boost): up to seven | effect of re-boosting on CD4, CD8 and viral load ([7]; two booster administrations): no negative effect | limiting toxicology [8]: no limiting toxicology | local intradermal reactions (erythema, edema) versus control animals [8]: slightly more pronounced | systemic reactions [8]: no systemic reactions | Proviral DNA, Geometric mean ([9]; Baseline, n 26): 22.3 copies/mL | Proviral DNA, Mean ([9]; Baseline, n 26): 98.4 copies/mL | Proviral DNA, Median ([9]; Baseline, n 26): 57.0 copies/mL | Proviral DNA, Geometric mean ratio (Week 4/Baseline) ([9]; n 26): 0.5 | Proviral DNA, Geometric mean ([9]; Week 4, n 26 (Table 3)): 11.4 Copies/mL | Proviral DNA, Mean ([9]; Week 4, n 26 (Table 3)): 93.9 Copies/mL | Proviral DNA, Median ([9]; Week 4, n 26 (Table 3)): 34.5 Copies/mL | Proviral DNA, Geometric mean ([9]; Week 4, n 27 (Table 2)): 12.9 copies/mL | Proviral DNA, Mean ([9]; Week 4, n 27 (Table 2)): 100.8 copies/mL | Proviral DNA, Median ([9]; Week 4, n 27 (Table 2)): 45.0 copies/mL | percentage change in CD4 count between Week 28 and last CD4 assessment before resumption of ART, versus placebo ([10]; ITT analysis population): no effect compared with placebo | proportion of subjects requiring resumption of ART after ART cessation at Week 28, versus placebo ([10]; ITT analysis population): did not reduce | time to restarting ART versus placebo ([10]; ITT analysis population): similar | change in HIV-1 RNA from Week 28 through to Week 52 versus placebo ([10]; after ART cessation): statistically significant difference between groups in favour of Vacc-4x | safety concern ([10]; in vivo): No safety concern | Week 52 (LOCF) viral load versus placebo ([10]; post-hoc analysis): statistically significantly lower | average viral load versus placebo ([10]; subgroup who remained off ART until Week 52): lower in the Vacc-4x-treated subjects than the placebo group | HIV-1 RNA AUC versus placebo ([10]; subjects who remained off ART at Week 52): lower in the Vacc-4x group than in the placebo group | viral load (VL) set point versus placebo and versus historic preART values ([10]; with rhuGM-CSF (Leukine) as adjuvant): significant reduction | immunogenicity, T-cell proliferative responses ([10]; with rhuGM-CSF as adjuvant): immunogenic, inducing proliferative responses in both CD4 and CD8 T-cells | serious adverse events [11, 15]: no serious adverse events (SAEs) occurred | severity of adverse reactions [11, 15]: mild or moderate in severity except for severe local reactions in one subject | antibody response to Vacc-4x peptides ([11]; 11 subjects): no antibody response | cell-mediated immune response by delayed-type hypersensitivity (DTH) skin reaction ([11]; 11 subjects): All subjects experienced a cell-mediated immune response | subjects with cell-mediated immune response by γ IFN release ELISPOT ([11]; 11 subjects): 45 % of the subjects | treatment related fatigue-vertigo ([11]; 11 subjects): four | treatment related influenza-like symptoms ([11]; 11 subjects): two | treatment related irritated skin at injection site ([11]; 11 subjects): two | treatment related painful injection ([11]; 11 subjects): seven | subjects with events judged related to treatment ([11]; 11 subjects, 0.4 mg/injection, 12 immunizations): nine | subjects with one or more adverse events ([11]; 11 subjects, 12 immunizations of 0.4 mg/injection over 26 weeks, rhu-GM-CSF adjuvant): All subjects experienced one or more adverse events
